30 sequences from the nanobody polyreactivity screen of Harvey et al. (2022) can be followed below.

A short description of the data set: yeast display, Sf9 membrane polyspecificity reagent, FACS + sequencing; frameworks hold sequencing errors. An outline of the steps:
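A nanobody's polyreactivity label depends on the gate it was sorted from. Yeast display cells were stained with 10% biotinylated, detergent-solubilized Sf9 membrane reagent for 1 hour at 4 °C, enriched on streptavidin microbeads and sorted by FACS. The low and high (top ~1%) gates were set on anti-HA fluorescence for expression and streptavidin fluorescence for reagent binding.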
As to “QVQLVESGGGLVQAGGSLRLSCAASGSIILGYAMGWYRQAPGKERELVAAIRRSSAGTYYADSVKGRFTISRDNAKNTVYLQMISLKPEDTAVYYCAWYPATYRWAYYYWGQGTQVTVSS”, the “polyreactivity (PSR sort gate)” value is “high polyreactivity”.

For “QVQLVESGGGLVQAGGSLRLSCAASGSIINRYAKGWYRQAPGKERELVAAITQSGGRTYYADSVKGRFTISRDNAKNTVYLQMNSLNPEDTAVYYCNAVRWYLYDYWGQGTQVTVSS”, the “polyreactivity (PSR sort gate)” value is given as “high polyreactivity”. For the sequence “QVQLVESGGGLVQAGGSLRLSCAASGSIIPGYTMGWYRQAPGKERELVAAISRRGGSTYYADSVKGRFTISRDNAKNTVYLQMNSLKPEDTAVYYCAASLWYRISKYDYWGQGTQVTVSS”, the “polyreactivity (PSR sort gate)” value is “high polyreactivity”. The same measure for “QVQLVESGGGLVQAGGSLRLSCAASGSIIPRNVMGWYRQAPGNERELVAAISRSGGSTSYADSVKGRFTISRDNAKNTVYLQMNSLKPEDTAVYYCKAPWQRYSAPWGQGYNYWGQGTQVTVSS”: “high polyreactivity”; for “QVQLVESGGGLVQAGGSLRLSCAASGSIIPSYSMGWYRQAPGKERDLVATIGRGGTTNYADSVKGRFTISLDNAKNTVYLQMNSLKPEDTAVYYCYAERIWRYKYGYDYWGQGSQVTVSS”: “high polyreactivity”. The same measure for “QVQLVESGGGLVQAGGSLRLSCAASGSIIPVYAMGWDRQAPGKVRQLVAAISSRGGRTYYADSVKGRFKISRDNAKNTVYLQMNSLKPEDTAVYYCASVYATYYRLPSQYDYWGQGTQVTVSS”: “low polyreactivity”; for “QVQLVESGGGLVQAGGSLRLSCAASGSIIRKYAMGCYRPAPGKERELVAAITSGGRTYYADSVKGRFTISRDNAKNTVYLQMNSLKPEDTAVYYCNARVRGYYEYNYWGQGTQVTVSS”: “high polyreactivity”.

Take “QVQLVESGGGLVQAGGSLRLSCAASGSIIRKYAMGWYRQAHGKERELVAAISRRTGNTYYADSVKGRFTISRDNAKNTVYLQMNSLKPEDTAVYYCAADYYSSSSWSEVDSWGQGTQVTVSS”: the “polyreactivity (PSR sort gate)” value was “high polyreactivity”.

For “QVQLVESGGGLVQAGGSLRLSCAASGSIISFYAMGWYRQAPGKEREMVAVISDIGGSTYYADSVKGRFTISRDNAKNTDYLEMNSLKPEDTAVYYCAAGCHARTWYAYYYWGQGTQVTVSS”, the “polyreactivity (PSR sort gate)” value is “low polyreactivity”. On to “QVQLVESGGGLVQAGGSLRLSCAASGSIISGNVMGWYRQAPGKEREFVATISWRGGNTYYADSVKGRFTISRDNAKNTVYLQMNSLKPEETAVYDCATRRLYSKSWYYYWGQGTQVTVSS”, for which the “polyreactivity (PSR sort gate)” value is recorded as “high polyreactivity”. Regarding “QVQLVESGGGLVQAGGSLRLSCAASGSIISPNAMGWYRQAPGKERELVATISFSGGRTYYADSVKGLVTISRDNAKNTVYLQMNSLKPEDTAVYYCAKAYYYTDMDYWGQGTQVTVSS”, the “polyreactivity (PSR sort gate)” value is given as “low polyreactivity”. The same measure for “QVQLVESGGGLVQAGGSLRLSCAASGSIISRNAMGWYRQAPGKEREFVAAITRSGGSTSYADSVKGRFTISRDNAKSTVYLQMNSLKPEDTAVYYCAAAQKYRKEFDSWGQGTQVTVSS”: “high polyreactivity”. The entry for “QVQLVESGGGLVQAGGSLRLSCAASGSIITDYAMGWYRQAPGKERELVATITDSGGSTYYADSVKGRFTISRDNAKNTVYLQMNSLKPEDTAVYYCAADRIHSVTRYDYDYWGQGTQVTVSS” is “low polyreactivity”; for “QVQLVESGGGLVQAGGSLRLSCAASGSIITGYAMGWYRQAPGKERELVAAITGNAGSTYYADSVKGRFTISRDNAKNTVYLQMNSLKPEDTAVYYCNARSWYVRGDYWGQGTQVTVSS” it is “low polyreactivity”.

Turning to “QVQLVESGGGLVQAGGSLRLSCAASGSIITVNAMGWYRQAPGKEREFVAGITSIGGRTYYADSVMGRFTISRDNAKNTVYLQMYSLKPEDTAVYYCNKRSYRARYDYWGQGTQVTVSS”, the “polyreactivity (PSR sort gate)” value was “high polyreactivity”. Take “QVQLVESGGGLVQAGGSLRLSCAASGSIITYYAMGGYRQAPGKERELVAGISARGGSTRYADSVKGRFTISRDNAKNTVYLQMNSLKPEDTAVYYCAADSRTNGYDYWGQGTQVTVSS”: the “polyreactivity (PSR sort gate)” value was “high polyreactivity”. On to “QVQLVESGGGLVQAGGSLRLSCAASGSIIVRYAMGWYRQAPGKDRELVATITFRDTSTYYADSEKGRFTISRDNAKNTVYLQMNSLKPEDTAVYYCAAVRAVLWDIARYDYWGQGSQVTVSS”, for which the “polyreactivity (PSR sort gate)” value was “low polyreactivity”. Regarding “QVQLVESGGGLVQAGGSLRLSCAASGSIIVRYAMGWYRQAPGKERELVATITFRDTSTYYADSVKGRFTISRDNAKNTVYLQMNRLIPEDTAVYYCAAVRADLWDIARYDYWGQGTQVTVSS”, the “polyreactivity (PSR sort gate)” value was “low polyreactivity”.

With “QVQLVESGGGLVQAGGSLRLSCAASGSIIVWNAMGWYRQAPGKERELVASITSGASTYYADSVKGRFTISRDNAKNTVYLQINSLKPEDTAVYYCAADPWYVAYLLDGYGMDYWGQGTLVTVSS”, the “polyreactivity (PSR sort gate)” value is listed as “low polyreactivity”. Turning to “QVQLVESGGGLVQAGGSLRLSCAASGSIIWFYAMGWYRQAPGKEWELVAAISGSDTSTYYADSVKGRFTISRDNAKNTVYLQMNSLKPEDTSVYYCAADDGTTFGYGYWGQGTQVTVSS”, the “polyreactivity (PSR sort gate)” value is recorded as “low polyreactivity”. The entry for “QVQLVESGGGLVQAGGSLRLSCAASGSIIYIYAMGWYRQAPGKERELVAAISSGDRTNYADSVKGRFTISRDNAKNTVYLQMNSLKPEDTAVYYCAAERKNKYDYWGQGTQVTVSS” is “high polyreactivity”. In the case of “QVQLVESGGGLVQAGGSLRLSCAASGSIIYLYAMGWYRQAPGKEREFVAAITWRGASTYYADSVKGRFTISRYNAKNTVYLQMNSLKPEDTAVYYCAAKLPRVYGYGFDYWGQGTQVTVSS”, the “polyreactivity (PSR sort gate)” value is given as “low polyreactivity”. The same measure for “QVQLVESGGGLVQAGGSLRLSCAASGSIIYSYAMGWYRQAPGKERELVAAISTSAGTTYYADSVKGRFTISRDNAKNTVYLQMNSLKPEDTAVYYCATQVWSHKYWYYYWGQGTQVTVSS”: “high polyreactivity”. Consider “QVQLVESGGGLVQAGGSLRLSCAASGSIIYYYAMGWYRQAPGKERELVASITRGGSTYYADSVKGRFTISRDNAKNTVYLQMNSLKPEDTAVYYCNADLGAYVPYDYWGQGTQVTVSS”, for which the “polyreactivity (PSR sort gate)” value is “high polyreactivity”. The same measure for “QVQLVESGGGLVQAGGSLRLSCAASGSILAGYAMGWYRQAPGKERELVAAISGGGGSTYYADSVKGRFTISRDNAKNTVYLQMNSLKPEDTAVYYCAAQDTYYGLFSYWIPWSGYWGQGTQVTVSS”: “high polyreactivity”; for “QVQLVESGGGLVQAGGSLRLSCAASGSILARYAMGWYRPAPGKERELVAAISSRGGSTYYADSVKGRFTISRDNAKNTVYLEINSLKPEDTAVYSCAAYVYLQVEYDYWGHGTQVTVSS”: “low polyreactivity”; for “QVQLVESGGGLVQAGGSLRLSCAASGSILAYNAMGWYRQAPGKERELVAAISWTGRTYYADSVKGRFTISRDNAKNTVYLQMNSLKPEDTAVYYCNARGRQRSRGSQIYDYWGQGSQVTVSS”: “high polyreactivity”. For the sequence “QVQLVESGGGLVQAGGSLRLSCAASGSILDGYAMGWYIQAPGKARELVAAITTGGGSTYYADSVKGRFTISRDNAKNTVYLQMNSLKPEDTAVYYCAAYRKPGSWTWWVRGYGYWVQGTQVTVSS”, the “polyreactivity (PSR sort gate)” value is listed as “low polyreactivity”.

On to “QVQLVESGGGLVQAGGSLRLSCAASGSILDRYVMGWYRQAPGNGRELVSAITWSGSRTYYADSVKGRFTISRDNAKNTVYLQMNSLKPEDTAVYYCAKVIRRSSTLGNHYYWGQGTQVTVSS”, for which the “polyreactivity (PSR sort gate)” value was “high polyreactivity”. In the case of “QVQLVESGGGLVQAGGSLRLSCAASGSILEGNAMGWYRQAPGKERELVASISGDGSTNYADSVKGRFTISRDNAKNTVYLQMNSLKPEDTAVYYCAARYGRIHWKANWPEYGYWGQGTQVTVSS”, the “polyreactivity (PSR sort gate)” value is recorded as “low polyreactivity”.
